For seven molecules, NCB and Kd results are on record in patent US20260152557A1 (Adimab, published 2026).

B1: ADI-79842 (Antibody No. 7), human IgG1 (antibody, V domains shown)
VH: QVQLVQSGAEVKKPGASVKVSCKASGFNIKDYYMHWVRQAPGQRLEWMGWIDLENANTIYDAKFQGRVTITRDTSASTAYMELSSLRSEDTAVYYCARDHYGRYFYDVWGQGTLVTVSS
VL: DIVMTQSPDSLAVSLGERATINCKSSQSLLNARTGKNYLAWYQQKPGQPPKLLIYWASTRESGVPDRFSGSGSGTDFTLTISSLQAEDVAVYYCKQSYSRRTFGGGTKVEIK
notes: Tested as yeast-produced aglycosylated human IgG1
B2: ADI-79847 (Antibody No. 13), human IgG1 (antibody, V domains shown)
VH: B1 VH with G102H
VL: B1 VL with K36H, Y98H
notes: as for B1
B3: ADI-79844 (Antibody No. 10), human IgG1 (antibody, V domains shown)
VH: B1 VH with H100A
VL: B1 VL with Y98H
notes: as for B1
B4: ADI-79845 (Antibody No. 11), human IgG1 (antibody, V domains shown)
VH: B1 VH with H100A
VL: B1 VL with R100H
notes: as for B1
B5: ADI-79846 (Antibody No. 12), human IgG1 (antibody, V domains shown)
VH: B1 VH with E82G
VL: B1 VL with K36H, Y98H, R100H
notes: as for B1
B6: ADI-79843 (Antibody No. 8), human IgG1 (antibody, V domains shown)
VH: B1 VH with H100A, G102H
VL: B1 VL
notes: as for B1
B7: ADI-79848 (Antibody No. 9), human IgG1 (antibody, V domains shown)
VH: B1 VH with H100A
VL: B1 VL with K36H
notes: as for B1

Residue numbers refer to the chain shown, from its start.

T2 sequence (P07766 23-207): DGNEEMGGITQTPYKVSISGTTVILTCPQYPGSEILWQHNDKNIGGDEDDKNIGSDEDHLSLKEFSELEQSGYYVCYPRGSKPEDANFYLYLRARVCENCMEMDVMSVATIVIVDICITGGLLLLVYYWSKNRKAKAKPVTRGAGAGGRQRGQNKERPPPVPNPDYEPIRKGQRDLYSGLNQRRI
T1 sequence (Q95LI5 22-198): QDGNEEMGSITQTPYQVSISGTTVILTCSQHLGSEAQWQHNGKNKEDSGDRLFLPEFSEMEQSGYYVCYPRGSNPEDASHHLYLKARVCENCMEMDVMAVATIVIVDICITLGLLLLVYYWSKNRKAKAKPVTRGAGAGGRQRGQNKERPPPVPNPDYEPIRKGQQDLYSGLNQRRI

One assay concerns the target T1, cynomolgus CD3 on HSC-F cells (cynomolgus, UniProt Q95LI5 22-198).
T1 construct: whole, on cells; also called Cyno HSC-F; cynomolgus HSC-F cells
Nature of the assay: flow cytometry, yeast-produced IgG 100 nM on HSC-F cells, pH 6.0. The method, then: (§1) Anti-CD3 antibodies Antibody Nos. 1-13 were produced as aglycosylated IgGs comprising a IgG1 Fc region in yeast cells. Binding to human or cynomolgus CD3-expressing cells (human CD3+ Jurkat cells or cynomolgus HSC-F cells, respectively) at pH 7.4 and pH 6.0 were measured by fluorescence-activated single cell sorting (FACS). Normalized cell binding (NCB) values were calculated based on median fluorescence intensity (MFI) values, CD3 negative Jurkat cells were used as a negative control.
(§2) Cell binding assay, CD3+ and CD3− human Jurkat cells (ATCC) and cynomolgus HSC-F cells (NIH) were thawed and washed with cold PBSF buffer, pH 7.4 (PBS+0.1% BSA, pH 7.4). About 200,000 cells were aliquoted per well of a 96-well plate (FACS Assay Plate VWR BD 353263) and pelleted by centrifugation (5 minutes at 500×g). The cells were washed with either PBSF pH 7.4 or PBSF pH 6.0 (PBS+0.1% BSA, pH 6.0), and then resuspended in 100 μl in either PBSF pH 7.4 or PBSF pH 6.0 with IgG antibody (100 nM) produced in yeast as described above. The mixture (cells+antibody) was incubated for 20 minutes on ice, then washed twice with either PBSF pH 7.4 or PBSF pH 6.0. Cells were resuspended in 50 μl of propidium iodide (Roche; 1:500 dilution) and anti-human IgG-RPE (Southern Biotech; 1:100 dilution) prepared in either PBSF pH 7.4 or PBSF pH 6.0, then incubated for 20 minutes on ice in the dark before cells were washed twice with either PBSF pH 7.4 or PBSF pH 6.0. Binding was analyzed on FACS Canto 11.
B1 registered an NCB of 575.
For the molecule B2, the NCB was found to be 2.
Same read-out and setting: the figure for B3 is 603.
As for B4, the NCB came to 581.
In turn, B5 returned an NCB of 235.
B6 gave an NCB of 603.
Take B7: the NCB was 550.

The target of a further assay is T1, cynomolgus CD3 on HSC-F cells. Kind of assay: flow cytometry, yeast-produced IgG 100 nM on HSC-F cells, pH 7.4. The method, then: as §1, §2
Regarding B1, the NCB came out at 172.
B2 gave an NCB of 0.
In the case of B3, the NCB was determined as 160.
Take B4: the NCB was 167.
Molecule B5 returned an NCB of 2.
As for B6, the NCB came to 174.
In the case of B7, the NCB came to 173.

Another assay addresses T2, human CD3 on CD3+ Jurkat cells (human, UniProt P07766 23-207).
T2 construct: whole, on cells; The whole CD3 complex stands on the cells; also called Human CD3 Jurkat; human CD3+ Jurkat cells
Nature of the assay: flow cytometry, yeast-produced IgG 100 nM on CD3+ Jurkat cells, pH 6.0. The protocol:
as §1, §2
Molecule B1 showed an NCB of 208.
As to B2, the NCB turned out to be 0.
B3 registered an NCB of 196.
The same measure, in the same setting: the figure for B4 is 200; for B5 it is 65.
For B6, the NCB worked out at 207.
Same read-out and setting: to B7 belongs 200.

In the next assay the target is T2, human CD3 on CD3+ Jurkat cells. Nature of the assay: flow cytometry, yeast-produced IgG 100 nM on CD3+ Jurkat cells, pH 7.4. The method, then: as §1, §2
Molecule B1 returned an NCB of 139.
In turn, B2 registered an NCB of 0.
The same measure, in the same setting: to B3 belongs 147.
On the same count and under the same terms, to B4 belongs 149; to B5, 4; to B6, 149.
Still for that read-out and setting: to B7 belongs 136.

The target of a further assay is T3, human CD3εδ-Fc heterodimer (Hu CD3ε Fc / CD3δ Fc-HIS) (human, UniProt P04234 22-100).
T3 construct: range 22-100; Produced in HEK 293 cells with a heterologous signal peptide; heterodimer purified by Ni Sepharose and Mono Q; also called Hu CD3εδ Fc heterodimer; CD3εδ Fc-HIS heterodimer; not shown: Fc-HIS part of CD3δ Fc-HIS
T3 sequence (chain, as listed by the source mutant, form in doubt, chain 1 of 2): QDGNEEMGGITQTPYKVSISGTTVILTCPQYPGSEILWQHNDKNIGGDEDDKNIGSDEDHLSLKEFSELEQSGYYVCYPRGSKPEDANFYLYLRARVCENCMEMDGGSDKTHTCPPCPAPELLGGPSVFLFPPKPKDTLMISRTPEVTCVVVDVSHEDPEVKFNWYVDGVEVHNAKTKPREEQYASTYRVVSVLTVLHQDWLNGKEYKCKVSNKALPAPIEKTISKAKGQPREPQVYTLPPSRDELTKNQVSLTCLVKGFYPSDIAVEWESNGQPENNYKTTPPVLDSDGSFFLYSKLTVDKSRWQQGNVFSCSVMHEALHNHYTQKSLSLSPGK
T3 sequence (P04234 22-100, stated change not applied, form in doubt, chain 2 of 2): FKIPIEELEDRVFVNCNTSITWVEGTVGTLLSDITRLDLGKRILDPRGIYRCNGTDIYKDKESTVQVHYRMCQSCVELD
Nature of the assay: BLI (Octet), yeast-produced IgG on AHC sensor, CD3εδ-Fc 100 nM in solution, pH 6.0. The protocol: (§3) Anti-CD3 antibodies Antibody Nos. 1-13 were produced as human IgG1 antibodies in yeast or CHO cells. IgGs produced in yeast were aglycosylated, CHO) produced IgGs had standard CH2 glycosylation. Binding affinity to human or cynomolgus CD3εδ-Fc at pH 7.4 and pH 6.0 was measured via biolayer interferometry (BLI) using the ForteBio OCTET® HTX system and analyzed using the ForteBio software.
(§4) Kinetics were analyzed using the 1:1 binding model.
B1 registered a Kd of 6.52 nM.
The same measure, in the same setting: to B3 belongs 3.6 nM.
For the molecule B4, the affinity, expressed as Kd, was 1.04 nM. This Kd lies about 3.5-fold lower than the previous one.
Molecule B5 had an equilibrium dissociation constant (Kd) of 8.09 nM.
Turning to B6, the Kd amounted to 1.6 nM.
Consider B7, for which the affinity, expressed as Kd, was 6.47 nM.

In another assay the target is T4, cynomolgus CD3εδ-Fc heterodimer (Cy CD3ε Fc / CD3δ Fc-HIS) (cynomolgus, UniProt Q95LI8 22-100).
T4 construct: range 22-100; Produced in HEK 293 cells; also called Cy CD3εδ Fc heterodimer; not shown: Fc-HIS part of CD3δ Fc-HIS
T4 sequence (chain, as listed by the source mutant, form in doubt, chain 1 of 2): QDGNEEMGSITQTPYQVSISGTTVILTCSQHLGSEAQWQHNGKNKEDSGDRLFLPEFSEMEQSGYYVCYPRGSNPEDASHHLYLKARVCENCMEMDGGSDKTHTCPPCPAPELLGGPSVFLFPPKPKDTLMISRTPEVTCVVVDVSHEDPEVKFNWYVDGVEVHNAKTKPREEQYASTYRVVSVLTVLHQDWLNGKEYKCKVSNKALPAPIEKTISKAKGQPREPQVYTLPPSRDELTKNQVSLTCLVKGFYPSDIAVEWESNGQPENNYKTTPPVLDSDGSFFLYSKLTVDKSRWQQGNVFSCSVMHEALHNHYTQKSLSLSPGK
T4 sequence (Q95LI8 22-100, stated change not applied, form in doubt, chain 2 of 2): as the sequence (P04234 22-100, stated change not applied, form in doubt, chain 2 of 2) above, with I5V, N15K, I20V, S32T, D33N, I34N, T64A, S74N counted along it
The description is as above. The protocol: as §3, §4
For the molecule B1, binding was put at a Kd of 6.88 nM.
Consider B3, for which binding was put at a Kd of 2.94 nM. Compared with the last molecule, the Kd is about 2.3-fold lower.
Molecule B5 yielded a Kd of 11.8 nM.
The same measure, in the same setting: the figure for B6 is 1.76 nM; for B7 it is 6.28 nM.

For a further assay, the target named is T3, human CD3εδ-Fc heterodimer (Hu CD3ε Fc …). Kind of assay: BLI (Octet), yeast-produced IgG on AHC sensor, CD3εδ-Fc 100 nM in solution, pH 7.4. The method, then: as §3, §4
For the molecule B1, the Kd turned out to be 16.1 nM.
Regarding B3, binding was characterised by a dissociation constant (Kd) of 6.51 nM.
Still for that read-out and setting: the figure for B4 is 9.87 nM; for B6 it is 6.64 nM.
As to B7, the affinity, expressed as Kd, was 11.6 nM.

The target of another assay is T4, cynomolgus CD3εδ-Fc heterodimer (Cy …). Described as above. The protocol: as §3, §4
The molecule B1 showed a Kd of 17.9 nM.
On the same count and under the same terms, to B3 belongs 5.42 nM; to B4, 8.06 nM.
Same read-out and setting: to B6 belongs 5.66 nM.
In turn, B7 had a Kd of 14.5 nM.
